In patent publication US20240352132A1:

Key:
[1] = biological target: HGFR protein extracellular domain with the His tag (human) (UniProt P08581); experiment: competition ELISA, blocks bio-HGF-His on coated HGFR-His
[2] = biological target: HGFR protein extracellular domain with the His tag (human) (UniProt P08581); experiment: SPR Biacore T200, antibody captured on Protein A, antigen in flow, 1:1 fit
[3] = biological target: human EGFR protein extracellular domain with the His tag (human) (UniProt P00533); experiment: as above

- IC50 [1]: 1.36 µg/mL
- Max (%) [1]: 94.1%
- Kd [2]: 10.3 nM
- koff [2]: 0.000303 s⁻¹
- kon [2]: 29500 M⁻¹ s⁻¹
- Kd [3]: 69.1 nM
- koff [3]: 0.00473 s⁻¹
- kon [3]: 68500 M⁻¹ s⁻¹
Substance: MCLA (bispecific antibody)
